Changes are numbered by the printed parent chain. In names and notes the source's numbering stands.
B1: T172R/G173Q/L196C/I301C/V116K/A51V: cocaine esterase mutant of SEQ ID No. 1 with the named mutations (protein, UniProt Q9L9D7 1-574, looked up, variant T172R G173Q L196C I301C V116K A51V)
Cocaine esterase: MVDGNYSVASNVMVPMRDGVRLAVDLYRPDADGPVPVLLVRNPYDKFDVFVWSTQSTNWLEFVRDGYAVVIQDTRGLFASEGEFVPHVDDEADAEDTLSWILEQAWCDGNVGMFGKSYLGVTQWQAAVSGVGGLKAIAPSMASADLYRAPWYGPGGALSVEALLGWSALIGRQLITSRSDARPEDAADFVQLAAICNDVAGAASVTPLAEQPLLGRLIPWVIDQVVDHPDNDESWQSISLFERLGGLATPALITAGWYDGFVGESLRTFVAVKDNADARLVVGPWSHSNLTGRNADRKFGCAATYPIQEATTMHKAFFDRHLRGETDALAGVPKVRLFVMGIDEWRDETDWPLPDTAYTPFYLGGSGAANTSTGGGTLSTSISGTESADTYLYDPADPVPSLGGTLLFHNGDNGPADQRPIHDRDDVLCYSTEVLTDPVEVTGTVSARLFVSSSAVDTDFTAKLVDVFPDGRAIALCDGIVRMRYRETLVNPTLIEAGEIYEVAIDMLATSNVFLPGHRIMVQVSSSNFPKYDRNSNTGGVIAREQLEEMCTAVNRIHRGPEHPSHIVLPIIKR
B2: T172R/G173Q/L196C/I301C/V116K/A51L: cocaine esterase mutant of SEQ ID No. 1 with the named mutations (protein, UniProt Q9L9D7 1-574, looked up, variant T172R G173Q L196C I301C V116K A51L)
Cocaine esterase: B1 Cocaine esterase with V51L
B3: V116K: cocaine esterase mutant, 116th valine mutated into lysine (protein, listed as Rhodococcus sp.)
chain: B1 Cocaine esterase with V51A
B4: Wildtype WT: wildtype bacterial cocaine esterase, amino acid sequence SEQ ID No. 1 (protein, listed as Rhodococcus sp.)
chain: B1 Cocaine esterase with V51A, K116V
B5: T172R/G173Q/L196C/I301C/V116K/A51Y: cocaine esterase mutant of SEQ ID No. 1 with the named mutations (protein, UniProt Q9L9D7 1-574, looked up, variant T172R G173Q L196C I301C V116K A51Y)
Cocaine esterase: B1 Cocaine esterase with V51Y
B6: T172R/G173Q/L196C/I301C/V116K: cocaine esterase mutant of SEQ ID No. 1 with the named mutations (protein, UniProt Q9L9D7 1-574, looked up, variant T172R G173Q L196C I301C V116K)
Cocaine esterase: B1 Cocaine esterase with V51A
B7: T172R/G173Q/V116K: cocaine esterase mutant of SEQ ID No. 1 with the named mutations (protein, UniProt Q9L9D7 1-574, looked up, variant T172R G173Q V116K)
Cocaine esterase: B1 Cocaine esterase with V51A, C196L, C301I
B8: T172R/G173Q/L196C/I301C/V116K/A51W: cocaine esterase mutant of SEQ ID No. 1 with the named mutations (protein, UniProt Q9L9D7 1-574, looked up, variant T172R G173Q L196C I301C V116K A51W)
Cocaine esterase: B1 Cocaine esterase with V51W
B9: T172R/G173Q/L196C/I301C: cocaine esterase mutant with the named mutations, comparator without V116K (protein, listed as Rhodococcus sp.)
chain: B1 Cocaine esterase with V51A, K116V
B10: T172R/G173Q: CocE T172R/G173Q mutant that completed the clinical test II phase of cocaine detoxification (protein, listed as Rhodococcus sp.)
chain: B1 Cocaine esterase with V51A, K116V
B11: T172R/G173Q/L196C/I301C/V116K/A51F: cocaine esterase mutant of SEQ ID No. 1 with the named mutations (protein, UniProt Q9L9D7 1-574, looked up, variant T172R G173Q L196C I301C V116K A51F)
Cocaine esterase: B1 Cocaine esterase with V51F

Test: High-activity CocE mutant accelerated BZE metabolism in vivo (rat blood BZE and BA by HPLC)
Set-up: species or system SD rats
Conditions: 0.2 or 1 mg/kg mutant i.v., then 2 mg/kg BZE i.v.; FIGS. 3A and 3B
Experimental: Experimental male SD rats (200 g/rat) purchased from Laboratory Animal Center of Zhejiang Academy of Medical Sciences were raised in a constant-temperature and constant-humidity environment. The feeding and experimental application was carried out by following Guide for the Care and Use of Laboratory Animals.
Blood was collected from the femoral vein of rats using a blood collection needle and a heparin-treated capillary. Firstly, eight tubes of blood from the same rat, 75 μL in each tube, were added to 100 μL of 250 μM paraxon to inhibit the effect of endogenous metabolizing enzymes on BZE, and frozen at −80° C. After thawing, 19.7 μL of mixed solution containing 0, 4, 10, 20, 40, 60, 100 and 200 μM BA and BE standards, then subjected to vortex for 20 seconds, and then added with 150 μL of acetonitrile and subjected to vortex for 1 minutes, then added with 50 μL of 10% HClO4 and subjected to vortex for 1 minutes, centrifuged at 17,000 rcf for 15 minutes, and then centrifuged again after the supernatant was transferred. 250 μL of supernatant were taken out for HPLC analysis. The sample volume was 100 μL, and the HPLC experimental conditions were the same as those in Embodiment 3. The concentrations of BZE and BA in the final standard samples were 0, 0.2, 0.5, 1, 2, 3, 5 and 10 μM respectively.
There were 5 rats in each group. Firstly, 0.2 or 1 mg/kg of high-active CocE mutant or normal saline was injected into the tail vein of rats, and 2 mg/kg BZE was injected into the tail vein within 1 minute. After BZE injection, 75 μL of blood samples were taken at the 0th, 2nd, 5th, 10th, 30th, 60th, 90th and 120th minutes respectively, and 100 μL of 250 μM paraxon were added in each sample, and then frozen at −80° C. After thawing, the samples were subjected to vortex for 20 seconds, then added with 150 μL of acetonitrile and subjected to vortex for 1 minute, then added with 50 μL of 10% HClO4 and subjected to vortex for 1 minute, centrifuged at 17,000 g for 15 minutes, and then centrifuged again after the supernatant was transferred. 250 μL of supernatant were taken out for HPLC analysis. The sample volume was 100 μL. The BA and BZE concentrations in the blood of rats in each group at different time points were calculated according to the blood sample standard curve of the standards, so as to obtain the metabolism of BZE with or without the high-activity CocE mutant.

Molecule	BZE metabolism in rats (in words)
B1	accelerating BZE metabolism
B2	accelerating BZE metabolism

Same assay, conditions: rats, 2 mg/kg BZE i.v. without mutant, second minute

Molecule	BA concentration in the blood	BZA concentration in the blood [µM]
CN1[C@H]2CC[C@@H]1[C@@H](C(=O)O)[C@@H](OC(=O)c1ccccc1)C2 [BZE, benzoylecgonine, reference compound]	less than 0.5 μM	15.8

Test: Enzyme activity analysis: in vitro catalytic reaction of CocE enzymes to substrate BZE (HPLC, Michaelis-Menten)
Assay type: biochemical
Conditions: not given
Source text: Firstly, an experimental method for detecting a substrate BZE and a product benzoic acid BA by HPLC was established. Both BZE and BA had strong ultraviolet absorption at 230 nm. In HPLC analysis, acetonitrile and 0.1% formic acid were used as mobile phases to separate BZE and BA by C18 liquid chromatography column. The absorption of BZE and BA at wavelength 230 nm was detected by an ultraviolet detector, and linear standard curves of BZE and BA were obtained. The activity of BZE reaction catalyzed by CocE was determined, and the reaction temperature was 25° C., with three repetitions in each group. An enzymatic reaction was started by 50 μL of substrate BZE solution with 50 μL of enzyme solution (diluted with 0.1 M phosphate buffer (pH 7.4)).
50 μL of 10% perchloric acid was added to stop the reaction, and then, 50 μL of acetonitrile was added, and the mixture was centrifuged at 12,000 rpm for 5 minutes. Then, the supernatant was diluted to an appropriate multiple and injected into […]. The peak time, peak areas and curves of BZE and BA were compared, and the residual BZE concentration and the BA concentration in the reaction sample were calculated. The kcat and KM of each mutant could be obtained by calculating the reaction rates of BA catalyzed by enzyme at different substrate concentrations, drawing a kinetic curve of the enzyme reaction with GraphPad Prism 8, and performing Michaelis-Menten kinetic analysis.

Molecule	catalytic efficiency on benzoylecgonine compared with the wildtype enzyme (in words)
B3	greatly improved

Same assay, conditions: substrate BZE

Molecule	RCE, ratio of catalytic efficiency of the mutant enzyme to BZE and that of the wildtype enzyme
B4	1.0
B5	357.4
B6	210.3
B7	110.8
B1	137.6
B8	132.5
B3	61.2
B9	2.6
B2	536.5
B10	1.6
B11	211.8

Same assay, conditions: substrate BZE, 25° C., 0.1 M phosphate buffer pH 7.4

Molecule	Km [µM]	kcat [s⁻¹]
B4	5150	5.02
B5	43.6	15.18
B6	46.3	9.477
B7	65.6	7.087
B1	86.2	11.55
B8	95.6	12.34
B3	89.6	5.34
B9	3710	9.278
B2	27.8	14.6
B10	4360	6.978
B11	59.3	12.23

Test: not given
Conditions: in vivo; cited from earlier work

Molecule	share of cocaine bio-converted by BChE and CE-2 to ecgonine methyl ester (EME)	share of cocaine hydrolyzed by CE-1 in liver to benzoyllecgonine (BZE) [%]
COC(=O)[C@H]1[C@@H](OC(=O)c2ccccc2)C[C@@H]2CC[C@H]1N2C [cocaine]	about 40%	45

Reference: patent publication US12180519B2, “Cocaine esterase mutant and use thereof” (Hangzhou Normal University, priority 2021, dated 2024)
